Measurements: patent US20190111106A1

Biological target: AC domain (catalytic domain) of Bordetella pertussis adenylate cyclase toxin, recombinant (Bordetella pertussis) (UniProt J7QLC0)
Experiment: SPR competition: AC domain (10 µM) pre-mixed with CaM and injected over an FHA-coated chip

## Calmodulin (from UniProt P0DP23 2-149)
  percent reduction of AC domain binding to FHA: 75%
